Test results taken from the DeepSol protein solubility set.

Assay: soluble on expression in E. coli; label from the status in PepcDB or PDB records
In the case of “MGSDKIHHHHHHMTFRGGNTGAKHAVVVGSGPNGLTTAAVLAKAGWQVDVYEAAPTPGGAARSESVLGEGTISDLGAAGHPFGVASPAFHYLGLEDHGLEWAYSPFAMAHPLDYGRAGLLETSLPETAKKLGPDARRWKNLHQGLTKNIDKHLANLLGPVLKWPAHPIRMAKFGPFALLPAKRLASAAFETEEARSLFIGSAMHSVTPPHKPMTASLGLLFGALGMSRGWPVAVGGSGRIVDALVNVINHHGGTIHCDSQIDSLSQFRDTDAIILNQTPSQVLKLKGTDLNAGLPQRMSTWKHGPSSYKVDYLLDGPIPWSNPQVGQATTVHVGGSSEEIAFAEAEVAAGRMPERPFIILCQQQVADPSRAREGRHVVWAYAHVPRGFVDKRAALLITAQIERFAPGFRDRIVHSVDTNAEDLEAWNPNLVGGDITAGSALLRRMPTKIGEKTYMASASNAPGGGVHGMPGWWAAQAVLADHR”, the “soluble on expression in E. coli” value is reported as “not soluble”. In the case of “MGSDKIHHHHHHMTGIVTANWWTSLIYRVFVRTACLRAGRGLLPNIWEWLWRLSCNIIEGPVDITIHNRPAIVNFGYTYPIYMRCYPELNAPLVELTYQCWRSRGTAICIVDVGAAVGDTMLLLHSNLPEAVGSFVCIEGDQEFYRYLQHNLGHMTEGRLINVVVADQETEVSDLVRIHTGTASAQGERTRGASTLSAVVTEEIDLIKIDVDGFDGRVLLGAEDLLKRCRPLVIFEWHPSLCRQTGNNWTDHFDVLARCGYSRCLWFTKFGHFSHFSFGHCREEIDTLAEYCMSDVVKDWHYDVIALHDDSDLSLLLLSQLGFAKARPSRY”, the “soluble on expression in E. coli” value is reported as “not soluble”. For “MGSDKIHHHHHHMTIDNQTGLVLEGGGMRGVFTCGVLDYLMDHDIRFPYTIGVSAGACNGLSYMSRQRGRAKYSNIDLLEKYHYIGLKHLLKKRNILDFDLLFTEFPEHILPYDYQAYFDSPERYVMVTTNCLTGEADYFEEKKDKNRVIDIVRASSSLPFVCPIAYVDGIPMLDGGIVDSIPLQRAIHDGYRNNVVVLTRNRGYRKENKDIRIPPFVYRKYPKMREALSRRCAAYNAQLEMVERMEEEGDILVIRPQKPVVVDRIERDIQKLTDLYEEGYECAKRQFEVL”, the “soluble on expression in E. coli” value was “not soluble”. In the case of “MGSDKIHHHHHHMTIDTNFSKWFLQPSKESAQMYETVMQRALTLVVEHMKEAANPFSGADRHSIQQAVKDAAFISYSGEPIDGVIRAIQEGVMKHSLWISHPSAMAHLHCPPLLPSLVAEVVINALNQSMDSWDQSPSATYVETELLRFFTRSIGYSDLGDGVFTSGGTQSNYMGMLLARNKICESAFATNVQEEGLPVDARKLRILCSQEAHFSVQKSAAQLGLGANAVVQVATNERQQLCVNETRQTINELRLKGLIPFMIVATAGTTDFGSIDKLREIAELAREQELWLHVDAAYGGALLFSRQYGHLLNGLHLADSITIDFHKFYYQSISCGAFFVKDRHEFERIRFHADYLNPEEDKEADIINLVEKSVQTTKRFDALKLLVTFKWMGTEQFGQMIDYTIQLAKETGELLRRYGFDVLNDPELNAVVFRYVPECHRDDQSYVDQLNLTLQRHFYERGDLIMAKTKQRGHVYLKFTMLNPLNTIENMKTQIQKVKKAGIEFEKTQGAIRHEHVIHS”, the “soluble on expression in E. coli” value is reported as “not soluble”. In the case of “MGSDKIHHHHHHMTIQDYMLETPVRMREIISNADSLFNEVKRTNLKKIIITGSGTSYHSGVQVQPYLQNLLDIDVVKMYPFMITEDTFKFDNENTLVVGVSQGGSSYSTYNAMKLAEDKGCKIASMAGCKNALIDEISDYILTVNCGEEKSGAKTKGYYCTKLNLMLLGLQIAREKGIISSEKYNEEINKILDAINRFEAVYKLSKQWIERNKEKLVNSKEIRIIGHSDIYGDTLEAALKLLETMRIPVTGYEFEEFIHGIYNAINSDSTIFILDTGKEPRVTKMIDVLSGWTENVFAIGRDVTENDKNLKIDITDNPYYQTFNFIVPIQLICGEIPTLRGVDPSVPKDTRFHMKLGSKKLNK”, the “soluble on expression in E. coli” value is reported as “not soluble”. With “MGSDKIHHHHHHMTISNQELTLTPLRGKSGKAYIGTYPNGERVFVKYNTTPILPALAKEQIAPQLLWARRTSNGDMMSAQEWLDGRTLTKEDMGSKQIIHILLRLHKSRPLVNQLLQLGYKIENPYDLLMDWEKQTPIQIRENTYLQSIVTELKRSLPEFRTEVATIVHGDIKHSNWVITTSGLIYLVDWDSVRLTDRMYDVAYILSHYIPQKHWKDWLSYYGYKDNEKVWSKIIWYGQFSYLSQIIKCFDKRDMEHVNQEIYELRKFRELIKKHNAS” the “soluble on expression in E. coli” value was “not soluble”. For “MGSDKIHHHHHHMTIVYLYTALCTVGGADRSIIQKANYLADEMHQDVFIITDSQKERPPVFPISPRIRHIDIGIDFDRQYHHNLLVRGYYYFTLMHLYRKKLEYWLKTLKPDIVISTLGRELDFLTQLDDGSVKIGESHIAKPYTRNLHLMEQRGFPYKQIARHWRKKQEEAVKKLDALVVLTQHDADNWKEVKKACVIPNFLPFSPEKGSSCLEKRIISIGRYSEQKGYDRLIEAWIKVNRKHPDWHIRIYGEGQDRNSLQELIEKHHIENSFSLCPPTKSIQEKYLESSIYVMSSRFEGLPMALLEAMACGVPCISFDCPYGPAEIITPEEDGILVKNGNTDELADAICRLIEDTDKRIRMGKQAQKNIQRYSREEVMKLWDELFNTLTTARP”, the “soluble on expression in E. coli” value was “not soluble”. For “MGSDKIHHHHHHMTKEQNSTENLDFQSPSDDTNLEGDFTADIVALAAKVEVQIQKIAERQRQISAKVQIPQPVEKIWKVLTDYEALPDFLPNLAKSRLIEHPNGGIRLEQVGSQRLLNFNFSARVVLDLEECFPREINFRMVEGDFKGFSGSWCLEPYSLGEYIGTNLCYTIQVWPKLTMPVGIIENRLSKDLRLNLVAIHQRVEELANKQPYI”, the “soluble on expression in E. coli” value was “not soluble”. With “MGSDKIHHHHHHMTKLTAHPQTEGAFTVASLEFLKQLAQHNSRDWFKTHQDEYENTIRTPALRFIEQIQPHIIAISPRLTAVAKKVGGSLMRPQRDSRFSKDKTPYKTNIGIQFRHFQGKDVHAPGLYLHIAEDGCFIAAGIWHPESKALNAIRTCIDENPNGYKKALQSLTNHGFMMDGDSLTRPPKGFDKHHPMLTELKRKDFIAVKNIPFERLCQRDAVHYCAEQLAHCSQLMAYLCFALELDF” the “soluble on expression in E. coli” value was “not soluble”. With “MGSDKIHHHHHHMTKSLNGLRILNTRPREQAQVLNKKIIESGGIPIDCPTMEIMASETNWINNLPDLTSVNQAIFVSTNAVRYFMMELASKNINWPNSIRVTAIGKGTSRVLNEFNIQVSDVPELPDSEHLLTLNSLQQIRNQTILLVKGEGGRQLIEEYLMLKGAKLCLLSVYKRVMPAIDQEFINSLWRDDLVDIILLTSEQSIHNLFKMFSIEGQMWLQNKPCLVISDRLAKVASLFGIKKILISHPERMIGALFDYKD” the “soluble on expression in E. coli” value was “not soluble”. With “MGSDKIHHHHHHMTKTDPAPMAPPPRGEEEEEEEEDEPVPEAPSPTQERRQKPVVHPSAPAPLPKDYAFTFFDPNDPACQEILFDPQTTIPELFAIVRQWVPQVQHKIDVIGNEILRRGCHVNDRDGLTDMTLLHYACKAGAHGVGDPAAAVRLSQQLLALGADVTLRSRWTNMNALHYAAYFDVPVLVRVLLKGARPRVVNSTCSDFNHGSALHIAASSLCLGAAKCLLEHGANPALRNRKGQVPAEVVPDPMDMSLDKAEAALVAKELRTLLEEAVPLSCALPKVTLPNYDNVPGNLMLSALGLRLGDRVLLDGQKTGTLRFCGTTEFASGQWVGVELDEPEGKNDGSVGGVRYFICPPKQGLFASVSKISKAVDAPPSSVTSTPRTPRMDFSRVTGKGRREHKGKKKTPSSPSLGSLQQRDGAKAEVGDQVLVAGQKQGIVRFYGKTDFAPGYWYGIELDQPTGKHDGSVFGVRYFTCPPRHGVFAPASRIQRIGGSTDSPGDSVGAKKVHQVTMTQPKRTFTTVRTPKDIASENSISRLLFCCWFPWMLRAEMQS” the “soluble on expression in E. coli” value was “not soluble”. For “MGSDKIHHHHHHMTLKIEHLTGGYTGVPVIKDINLEIKPGEALGLIGLNGAGKSTTIKHILGLLRPQKGKIILNDVVLTQQPTKFKREVAYIPETPILYPELTLKEHLELTMLSYKLDEKKAWERAHELLKMFRLDDKLEWLPIHFSKGMRQKVMIVSAFLADTSLLVIDEPFTGLDPLAVANLIDLIKQAIANNKMVLMTTHVLADAQQAISNYAVLNNGTIEIIGNLQDIREHYGLKPDDPFDKLYLALNREDHGNA”, the “soluble on expression in E. coli” value was “not soluble”. In the case of “MGSDKIHHHHHHMTLTYFLDKETDTPIYKQLYESLRKDILSGKLKTGAKLPSIRHFAQTLNVSVITVQNAYHQLEAEGYITSRDRSGYYVENLAGLTLLERQDAKIIHAPHHDQASEDQIIDFSPSNIDNAQFPLSIWRKCVNETLLNHETRFNHHGAKLGELPLRAAVADYVTKSRILDCTEEQVVIFEGIEHSMNILSLLFKQMGKTAIMEQPSYKVIEDIFSLHQLPIQRVPSPKGVLSLEDLQEQKNGVLYLTPSHQYPYGSFLSIQERIKIINWAQNSESYVIEDDYDGEFRYDIDPVPSLQGLSKNHVIYIGTFSKTLSPAIRVSYAILPPELMKRYQEVCSMFPSPVSVHLQLALAKFMEDGHYERHIRRMRKYYKEKQDFLIATIQEVMGDHAALHGTTAGLHLVLELKNNSRPYKQLLAAARAHGVNIYPVKDVTPNPYFILGFSGLPREKITEGIRRLHKAWIE”, the “soluble on expression in E. coli” value is reported as “not soluble”. In the case of “MGSDKIHHHHHHMTNANGNLKKCPITISSYTLGTEVSFPKRVKVAAENGFDGIGLRAENYVDALAAGLTDEDMLRILDEHNMKVTEVEYITQWGTAEDRTAEQQKKEQTTFHMARLFGVKHINCGLLEKIPEEQIIVALGELCDRAEELIIGLEFMPYSGVADLQAAWRVAEACGRDNAQLICDTWHWARANQTAESIKNVPADRIVSIQLCDVHETPYKELREESLHDRLAPGEGYGDTVGFAKILKEHGVNPRVMGVEVISDSMVATGLEYAALKVYNATKKVLDEAWPEISPR”, the “soluble on expression in E. coli” value is reported as “soluble”. In the case of “MGSDKIHHHHHHMTNDPIVFQMSVVKNKPQSYRKDKNKDICPFCDVENLTDIYAKDGDIIWLHNKFPTLRDTLQTVLIESSDHNGDISTYTKKYNRKLLRFSLQCFERMNRDDKYQSVVWYKNYGPHSGGSLIHPHMQIVGFKNVDGYKYIHPNNFEGETLFDKDGVEVNVAEHPVQGYTELNINLLNRNSVDLWADWIQSGAKYLLNIMYDGRCDSYNLFFYPRNDEGICAKFITRFDAPPYFVGYKLSQVNDEMTLTKEARRFKEFYDNDSKIK”, the “soluble on expression in E. coli” value is reported as “not soluble”. For “MGSDKIHHHHHHMTQPPQSLQIKLANPRGFCAGVDRAISIVERALELFSPPIYVRHEVVHNRYVVQNLKDRGAVFVDELDQVPDDSIVIFSAHGVSQAVRAEAKKRGLRVFDATCPLVTKVHLQVTRASRKGIECILIGHAGHPEVEGTMGQYDNPEGGVLLVESPADVEALVVKDPDNLCFVTQTTLSMDDTADVIAALQKRFPSIQGPRKDDICYATQNRQDAVRNVADDVDLFIVVGSKNSSNSNRLMELAIKKGTQSYLVDNADDIKPEWFNDIEKVAVTAGASAPEVLVQQVIDAIAKLAPSVITEVEGRKEDTVFAVPAELR”, the “soluble on expression in E. coli” value was “not soluble”. In the case of “MGSDKIHHHHHHMTRVVIIGGSGHVGTYLVPRLVEAGYEVVNVSRGQRAAYTLNAAWKSVEPVVIDRDTEEKAGTFGEKVRALKADIVVDMISFTLDSTKQIVGALRGEVQHFLHCGTIWVYGHNTAIPATEDQPKNPFGSYGTQKAEIESWLLNEARRNGFPATVFRPGHIVGPGWEPLNPAGHFDVGVFSQIARGEPLVLPNLGNETVHHVHADDVAQMVMRAIVSWSNAVGEAFNTVSPQAINLRGYAEALYNWFGHAPRLSYEPFDTWKGKQTEENWRATWEHIARSPSHSIAKARNLLGYDPRYSSLQAVYESVEWLVANGKLSR”, the “soluble on expression in E. coli” value is reported as “not soluble”.
